Measurements taken from paper PMC6823927.
Non-standard residues stand in square brackets, D forms with d. No end group written: not given here. Dip = N[C@H](C(=O)O)C(c1ccccc1)c1ccccc1

Legend:
[1] = biological target: 175Cys-Fab (meditope-enabled trastuzumab Fab with Ala175 of the heavy chain changed to cysteine); experiment: cross-linking
[2] = biological target: 175Cys-IgG1 (meditope-enabled trastuzumab IgG1 with Ala175 of the heavy chain changed to cysteine); experiment: disulfide conjugation, dye-antibody ratio

Q: With SQFD[Dip]CTRRLQSGGSK [SQFDA(Ph)2… meditope] as the binder, how does the stoichiometry N (meditope per Fab) [1] read?
A: The stoichiometry N (meditope per Fab) was 1.

Q: Which stoichiometry N [2] does the source give for SQFD[Dip]CTRRLQSGGSK-Alexa647 [SQFDA(Ph)2…-Alexa647 meditope] here?
A: Its stoichiometry N is 1.8 dyes per IgG.
